{"source": "patent US20050065102", "about": "“Medicinal compositions” (published 2005)", "binders": {"B1": {"name": "5'-amino-2'-O-methyl oligo RNA affinity ligand (ssRNA)", "RNA": "AUCUUCUUGGUGGUGCUCUACAAGUACCGCUGCUACAAGGUGAGGCCCU", "modifications": "2'-OMe all, 5'-amino"}}, "biological_target": "HMG-I (HMGA1a), partially purified (Homo sapiens, UniProt P17096 P17096:2-107)", "sequence (P17096 2-107, one chain of several)": "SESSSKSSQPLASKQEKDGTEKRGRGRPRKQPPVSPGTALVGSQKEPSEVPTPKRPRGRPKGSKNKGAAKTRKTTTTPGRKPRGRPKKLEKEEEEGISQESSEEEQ", "assay": "pulldown; affinity column, eluted with 1 M NaCl; identified by peptide sequencing", "conditions": "tags: ammonium sulfate and DEAE fractions from hypoxic SK-N-SH", "description": "The above fraction (III) was dialyzed twice against 5 L of 50 mM Tris-HCl buffer (pH 7.5) at 4° C. for 4 hours. Then, the resulting dialysate was applied to 5′-amino-2′-O-methyl oligo RNA (5′-[…]-3′, SEQ ID NO: 24)-coupled CNBr-activated Sepharose 4B (manufactured by Pharmacia Biotech) affinity column. The above affinity column was washed with 10 ml of the above incubation buffer and then eluted with 15 ml of the incubation buffer containing 1 M NaCl to give a fraction having a binding activity to the RNA probe of No. 5 [fraction (IV), FIG. 7 (IV)] (FIG. 9, lane 4). The result of silver staining of fraction (IV) is shown in lane 4 in FIG. 8, and the result of RNA binding assay thereof is shown in lane 4 in FIG. 9."}
{"binder": "B1", "values": [{"measurement": "binding result", "result": "binds"}]}
